Earlier results as cited in PMC11698047.
Read-outs that look alike come from different tables or passages of the source.

Legend:
[1] = target: M-Ras (Homo sapiens) (UniProt O14807)
[2] = target: Rap2 (Homo sapiens) (UniProt P10114)
[3] = target: R-Ras (Homo sapiens) (UniProt P10301)
[4] = target: TC21 (Homo sapiens) (UniProt P62070)
[5] = target: H-Ras (Homo sapiens) (UniProt P01112)
[6] = target: Rap1 (Homo sapiens) (UniProt P62834)
[7] = target: Ras (Homo sapiens) (UniProt P01112)
[8] = target: Ras (Homo sapiens) (UniProt P01112); remark: listed apart in the source
[9] = target: H-Ras (Homo sapiens) (UniProt P01112); remark: listed apart in the source

Sequence of Afadin RA1 (P55196 39-133): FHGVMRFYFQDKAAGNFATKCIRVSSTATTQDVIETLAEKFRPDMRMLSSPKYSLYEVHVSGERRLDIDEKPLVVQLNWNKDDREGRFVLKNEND
Sequence of Rap2 (Homo sapiens) (P10114 1-180): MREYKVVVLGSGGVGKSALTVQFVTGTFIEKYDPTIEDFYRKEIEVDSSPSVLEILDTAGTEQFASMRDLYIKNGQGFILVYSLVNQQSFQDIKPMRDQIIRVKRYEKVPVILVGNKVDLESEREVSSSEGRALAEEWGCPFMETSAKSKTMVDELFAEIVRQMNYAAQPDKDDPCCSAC
Sequence of Afadin RA1 with N-terminal α-helix (P55196 1-141): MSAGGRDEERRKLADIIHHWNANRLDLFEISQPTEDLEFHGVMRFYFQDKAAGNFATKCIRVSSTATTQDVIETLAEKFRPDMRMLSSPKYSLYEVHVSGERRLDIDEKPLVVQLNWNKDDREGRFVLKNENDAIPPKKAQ
Sequence of TC21 (Homo sapiens) (P62070 2-201): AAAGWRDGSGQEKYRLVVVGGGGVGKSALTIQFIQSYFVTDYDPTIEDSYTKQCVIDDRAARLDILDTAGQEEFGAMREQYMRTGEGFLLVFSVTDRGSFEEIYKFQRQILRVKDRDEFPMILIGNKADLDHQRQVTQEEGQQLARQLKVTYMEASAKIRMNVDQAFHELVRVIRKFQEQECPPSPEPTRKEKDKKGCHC
Sequence of Afadin RA2 (P55196 246-348): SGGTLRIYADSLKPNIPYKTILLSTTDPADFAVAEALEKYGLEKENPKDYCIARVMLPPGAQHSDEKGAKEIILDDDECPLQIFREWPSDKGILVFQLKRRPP
Sequence of Rap1 (Homo sapiens) (P62834 1-181): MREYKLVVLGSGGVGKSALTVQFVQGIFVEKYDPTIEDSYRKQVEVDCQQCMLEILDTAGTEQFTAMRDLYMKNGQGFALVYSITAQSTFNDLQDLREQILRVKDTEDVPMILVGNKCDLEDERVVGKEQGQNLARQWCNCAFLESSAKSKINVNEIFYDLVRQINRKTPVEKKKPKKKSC
Sequence of Afadin RA1 without N-terminal α-helix (P55196 39-133): as the sequence (P55196 39-133) above
Sequence of R-Ras (Homo sapiens) (P10301 1-215): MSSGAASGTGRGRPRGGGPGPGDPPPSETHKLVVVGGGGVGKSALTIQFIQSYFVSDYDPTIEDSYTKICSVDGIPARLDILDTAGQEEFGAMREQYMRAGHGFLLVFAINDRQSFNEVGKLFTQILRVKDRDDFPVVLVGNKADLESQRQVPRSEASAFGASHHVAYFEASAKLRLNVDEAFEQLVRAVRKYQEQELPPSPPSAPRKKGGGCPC

In the case of Afadin RA1 (from UniProt P55196), the Kd [1] is given as 2.5 µM, the Kd [2] is given as 2.5 µM and the Kd [3] is given as 16 µM. For the same substance, the Kd [4] was 16 µM, the Kd [5] was 2.5 µM and the Kd [6] was 0.24 µM.
In the case of “Afadin RA1 with N-terminal α-helix (from UniProt P55196)”, the Kd [7] is listed as 4.1 µM.
In the case of “Afadin RA1 without N-terminal α-helix (from UniProt P55196)”, the Kd [8] is given as 17.8 µM.
For Afadin RA2 (from UniProt P55196), the Kd [9] is listed as 30 µM.
